Experimental data taken from patent publication US20180044681A1.

Target: EpCAM (Epithelial Cell Adhesion Molecule) (UniProt P16422)
Assay: binding to EpCAM-expressing cells; method not stated

Sequence of EpCAM (Epithelial Cell Adhesion Molecule) (P16422 24-314 limits assumed): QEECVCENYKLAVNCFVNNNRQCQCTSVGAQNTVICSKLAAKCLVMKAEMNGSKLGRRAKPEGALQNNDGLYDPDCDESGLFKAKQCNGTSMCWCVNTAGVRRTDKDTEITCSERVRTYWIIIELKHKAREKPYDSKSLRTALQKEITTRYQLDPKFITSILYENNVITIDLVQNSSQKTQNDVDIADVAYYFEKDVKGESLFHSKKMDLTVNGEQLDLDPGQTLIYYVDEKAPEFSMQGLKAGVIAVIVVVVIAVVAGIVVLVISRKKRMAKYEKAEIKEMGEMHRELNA

Kd: 2.2 nM
Substance: HEA125 antibody
